Laboratory results as given in PMC5071372, “Combining biophysical methods to analyze the disulfide bond in SH2 domain of C-terminal Src kinase” (Biophysics Reports, 2016).
Entries after “also recorded” stand apart in the source; their conditions may differ.

B1: oxidized L-SH2: human Csk SH2 domain with SH3–SH2 linker, residues A73–A178, disulfide oxidized (PDB 3EAC) (protein)
chain: AGTKLSLMPWFHGKITREQAERLLYPPETGLFLVRESTNYPGDYTLCVSCDGKVEHYRIMYHASKLSIDEEVYFENLMQLVEHYTSDADGLCTRLIKPKVMEGTVA
modifications: disulfide bond C122–C164; left off: intein, end not stated, cleaved
B2: reduced L-SH2: human Csk SH2 domain with SH3–SH2 linker, residues A73–A178, reduced form (protein)
chain: B1 chain
modifications: left off: intein, end not stated, cleaved
notes: human Csk SH2 domain with SH3–SH2 linker, residues A73–A178, reduced form
B3: full-length Csk: C-terminal Src kinase, full length (protein, UniProt P41240 1-450, looked up)
chain: MSAIQAAWPSGTECIAKYNFHGTAEQDLPFCKGDVLTIVAVTKDPNWYKAKNKVGREGIIPANYVQKREGVKAGTKLSLMPWFHGKITREQAERLLYPPETGLFLVRESTNYPGDYTLCVSCDGKVEHYRIMYHASKLSIDEEVYFENLMQLVEHYTSDADGLCTRLIKPKVMEGTVAAQDEFYRSGWALNMKELKLLQTIGKGEFGDVMLGDYRGNKVAVKCIKNDATAQAFLAEASVMTQLRHSNLVQLLGVIVEEKGGLYIVTEYMAKGSLVDYLRSRGRSVLGGDCLLKFSLDVCEAMEYLEGNNFVHRDLAARNVLVSEDNVAKVSDFGLTKEASSTQDTGKLPVKWTAPEALREKKFSTKSDVWSFGILLWEIYSFGRVPYPRIPLKDVVPRVEKGYKMDAPDGCPPAVYEVMKNCWHLDAAMRPSFLQLREQLEHIKTHELHL
modifications: full-length

How the values were obtained:
[1] = system: Csk L-SH2 disulfide bond; assay: NMR-monitored reduction of oxidized SH2 by DTT; assay type: physicochemical, human; conditions: 10 mmol/L DTT, 50 mmol/L Tris-HCl pH 7.5, 1.0 mmol/L EDTA, 0.01% NaN3, 5% D2O, 298 K, NMR peak intensity
Description: During purification of the Csk L-SH2 domain, 50 mmol/L DTT was used to elute the protein from the chitin resin. The L-SH2 was used in reduced form, given that DTT was used to cleave L-SH2 from its intein fusion partner. Following elution of the protein from the ion exchange column, the L-SH2 became a mixture of the reduced and oxidized forms. The fully oxidized form was obtained by exposing the protein to air for several days.
Fig. 3 Comparison of the oxidized and reduced form of SH2. A Comparison of ^1H–^15N HSQC of oxidized (red) and reduced (green) SH2. B Combined chemical shift change of oxidized and reduced form SH2. The difference was calculated as ∆δ tot = [(∆δ H)^2 + (0.154∆δ N)^2]^1/2. […]
All NMR experiments were performed at 298 K on 800 MHz spectrometers equipped with triple-resonance cryoprobes. […] The combined change in chemical shift of a particular residue upon ligation with the kinase domain was calculated as ∆δ = [(∆δ H)^2 + (0.154∆δ N)^2]^1/2, where ∆δ H and ∆δ N correspond to the changes in amide proton and nitrogen chemical shift, respectively. The weight factor for ^1H and ^15N is determined from the ratio of the average variances of the amide nitrogen and proton chemical shifts observed for the 20 common amino acid residues in proteins deposited in the BioMagResBank (Mulder et al. [1999]). […]

[2] = Guanidine hydrochloride-induced unfolding monitored by tryptophan fluorescence; assay type: physicochemical; conditions: guanidine hydrochloride 0 to 6 mol/L, two-state linear extrapolation to H2O
Description: Intrinsic fluorescence of oxidized and reduced form of L-SH2 domain, as well as that of the cysteine mutants C122S and C164S L-SH2, was measured to examine the role of the disulfide bond in the stability of the Csk SH2 domain. […] The thermodynamic stability of these oxidized and reduced L-SH2 domains, as well as that of the mutants at equilibrium, were characterized by determining the free energy of unfolding by using guanidine hydrochloride-induced unfolding experiments monitored by tryptophan fluorescence (Fig. 4A). The curves were fitted using the linear extrapolation model to obtain the ∆G for unfolding in H2O (Santoro and Bolen [1988]). […]
Fluorescence titrations were performed at 25 °C in 3 mL of 50 mmol/L Tris-HCl (pH 7.5) using excitation and emission wavelengths of 288 nm and 320 nm, respectively. […] The concentrations of guanidine hydrochloride of the solutions were determined by measuring the index of refraction and by using the following equation: d/d 0 = 1 + 0.2710 W + 0.0330 W ^2 (Tanford et al. [1966]), where W is the weight fraction of guanidine hydrochloride in the solution, d is the density of the solution, and d 0 is the density of water. […] The signals were normalized to the fraction of unfolded species using the standard relation F unf = (I − I N)/(I U − I N), where N and U stand for the fluorescence intensity of the native and fully unfolded species, respectively. […]

[3] = system: full-length Csk; conditions: ref Mills et al. [2007], cited from earlier work
Description: Disulfide bonds are mostly found in secretory proteins and in extracellular domains of membrane proteins. Cytosolic proteins, which contain cysteine residues that are in close proximity to each other, may function as oxidation sensors; when the reductive potential of the cell fails, they oxidize and trigger cellular response mechanisms (Sevier and Kaiser [2002]). Mills et al. studied the unique disulfide bond of Csk SH2 that is absent in other known SH2 domains.

Row | Molecule | t1/2 of the reduction reaction [1] | free energy of unfolding ΔG U,W^0 [2] | kinase activity upon formation of the disulfide bond in the SH2 domain ([3]; full-length Csk) | kinase activity on prevention of the reduction of disulfide bond ([3]; restored upon re-introduction of reducing agent)
1 | B1 | 2.6 ± 0.1 h | 10.1 ± 0.382 kcal/mol |  | 
2 | B2 |  | 6.57 ± 0.17 kcal/mol |  | 
3 | B3 |  |  | decreases by an order of magnitude; also recorded: reduced by an order of magnitude | tenfold reduction in kinase activity
